Source: the supplement of paper PMC9170038

What was measured:
MS2 coat protein [1] = experiment: apparent KD of MS2 coat protein, switch OFF state (with FMN for OFF switches, without FMN for ON switches); designed switch direction (-1 OFF switch, 1 ON switch): 1; higher = weaker reporter binding; conditions: FMN input: 0 or 200 uM; Eterna round: R93 (includes R88 designs)
Procedure, shortened: (§1)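 Titrations with SNAP-549-labelled MS2 coat protein ran in twofold steps from 0.7 or 1.5 nM to 3 µM, each step taking 0.8–1.5 h at the start and 10–20 min toward the end. The targets were designed RNA switches transcribed on-chip from Illumina sequencing clusters, held in 100 mM Tris-HCl pH 7.5, 80 mM KCl, 4 mM MgCl2, without or with constant ligand. Apparent KD was taken per design as the median of normalised cluster binding-curve fits.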

MS2 coat protein [2] = experiment: apparent KD of MS2 coat protein, switch ON state; designed switch direction (-1 OFF switch, 1 ON switch): 1; higher = weaker reporter binding; conditions: FMN input: 0 or 200 uM; Eterna round: R93 (includes R88 designs)
Procedure, shortened: as §1

AGGAAACAUGAGGAUCACCCAUGUAAGAUAUAUACAGGAUAUGCGAAAAGAAACAAAGAAGCAGAAGGGUAAAAAA [75%, Ex sub1, 13]
apparent KD of MS2 coat protein (MS2 coat protein [1]): 25.5 nM
apparent KD of MS2 coat protein (MS2 coat protein [2]): 18 nM

AGGAAACAUGAGGAUCACCCAUGUAUAAAAAUGGAAGGAUAUACUAAGACGAAAGUCAUAGUAGAAGGUUCAAAAA [76%, Meechl, 9]
apparent KD of MS2 coat protein (MS2 coat protein [1]): 21.1 nM
apparent KD of MS2 coat protein (MS2 coat protein [2]): 13.1 nM

AGGAGACAUGAGGAUCACCCAUGUGAGAAGAGGCGAGGAUAUCGAAAAAAAAAAAGAAAACGAGAAGGCGCGAGAA [salish99-SS1-014]
apparent KD of MS2 coat protein (MS2 coat protein [1]): 59.9 nM
apparent KD of MS2 coat protein (MS2 coat protein [2]): 244 nM

AGGAGACAUGAGGAUCACCCAUGUGAGAAGAGGCGAGGAUAUCGAAAGAAAGAAAGAAAACGAGAAGGCGCGAGAA [salish99-SS1-016]
apparent KD of MS2 coat protein (MS2 coat protein [1]): 42.8 nM
apparent KD of MS2 coat protein (MS2 coat protein [2]): 28 nM

AGGAGACAUGAGGAUCACCCAUGUGAGAAGAGGCGAGGAUAUCGAAAGAAAGAAGAGAAACGAGAAGGCGCGAGAC [salish99-SS1-029]
apparent KD of MS2 coat protein (MS2 coat protein [1]): 33.6 nM
apparent KD of MS2 coat protein (MS2 coat protein [2]): 15.4 nM

AUAAAACAUGAGGAUCACCCAUGUAGAAAUAUGGGAGGAUAUACUAGAUCGAAAGAUCUAGUAGAAGGCCUUUAUG [JL Mod of Eli 5]
apparent KD of MS2 coat protein (MS2 coat protein [1]): 49.3 nM
apparent KD of MS2 coat protein (MS2 coat protein [2]): 45.4 nM

AUAAAACAUGAGGAUCACCCAUGUAGACACGAUGGAGGAUAUACUAGAUCGAAAGAUCUAGUAGAAGGCCGACGUA [Mat - Same State 1 - JL mod - D95]
apparent KD of MS2 coat protein (MS2 coat protein [1]): 22.6 nM
apparent KD of MS2 coat protein (MS2 coat protein [2]): 18.4 nM

AUAAAAGAAGCGAAGGAUAUCCAAAAUCCAACAUGAGGAUCACCCAUGUAAAGAAAGAAAAAAUGGGAGAAGGUCGCAAAGAAUA [73%, More Fisker Same State 2, D3, 11]
apparent KD of MS2 coat protein (MS2 coat protein [1]): 31.3 nM
apparent KD of MS2 coat protein (MS2 coat protein [2]): 13.5 nM

AUAAAAUAAAAGGAGGAUAUCCUUAAUAAAACAUGAGGAUCACCCAUGUAAAAAAUAAUAAAAUGGGAGAAGGCCUAAAAUAAAU [SS2 M 26]
apparent KD of MS2 coat protein (MS2 coat protein [1]): 64.2 nM
apparent KD of MS2 coat protein (MS2 coat protein [2]): 24.2 nM

AUAAAUAAAAGAGAGGAUAUCCAAAAUAAAACAUGAGGAUCACCCAUGUAAAAUAAAAUAAAAUGGGAGAAGGCUCAAAAUAAAU [SS2 M 2]
apparent KD of MS2 coat protein (MS2 coat protein [1]): 72.1 nM
apparent KD of MS2 coat protein (MS2 coat protein [2]): 21.6 nM

AUAAAUAAAAUCAAGGAUAUCCAAAAAAAAACAUGAGGAUCACCCAUGUAAAAGAAAAUAAAAUGGGAGAAGGUGAAAAAUAAAU [SS2 M 6]
apparent KD of MS2 coat protein (MS2 coat protein [1]): 68 nM
apparent KD of MS2 coat protein (MS2 coat protein [2]): 39.4 nM

AUAUAUAAAAGAUAGGAUAUACUAAAAUAAACAUGAGGAUCACCCAUGUAAAAAAAGAAACUCAUGUAGAAGGAUCAUAUAUAUA [ss2 7th]
apparent KD of MS2 coat protein (MS2 coat protein [1]): 246 nM
apparent KD of MS2 coat protein (MS2 coat protein [2]): 46.5 nM

AUAUAUAUAAGGAAGGAUAUCCAAAAAUAAACAUGAGGAUCACCCAUGUCCAUAAAGAAUAAAUGGGAGAAGGUCCAUAUAUAUA [77%, More Tesla, 9]
apparent KD of MS2 coat protein (MS2 coat protein [1]): 123 nM
apparent KD of MS2 coat protein (MS2 coat protein [2]): 24.2 nM

AUGAAAGUAACGCAGGAUAUCCAGGAUACAACAUGAGGAUCACCCAUGUACAUACGAACGUAUAAGGAGAAGGGUGGAUGAUCUUC [ss2-3]
apparent KD of MS2 coat protein (MS2 coat protein [1]): 48.2 nM
apparent KD of MS2 coat protein (MS2 coat protein [2]): 56.7 nM

CAGAGACAUGAGGAUCACCCAUGUAGGAUUAUGGGAGGAUAUACAAAGACGAGAGUCAGAGUAGAAGGCCUAGGCC [salish99-ss1-145]
apparent KD of MS2 coat protein (MS2 coat protein [1]): 43.2 nM
apparent KD of MS2 coat protein (MS2 coat protein [2]): 29.7 nM

CAUCACGCGCCUAAGGAUAUGUCUCACAAGACAUGAGGAUCACCCAUGUAGAAUAAAUAAAUGAUGCAGAAGGUGGAGCGCAUGC [Gerixeza]
apparent KD of MS2 coat protein (MS2 coat protein [1]): 517 nM
apparent KD of MS2 coat protein (MS2 coat protein [2]): 134 nM

CAUCAUGCGCCUAAGGAUAUGUCUCACAAGACAUGAGGAUCACCCAUGUAGAAUAAAUAAACGAUGCAGAAGGUGGAGCGCAUGA [Cexeri]
apparent KD of MS2 coat protein (MS2 coat protein [1]): 222 nM
apparent KD of MS2 coat protein (MS2 coat protein [2]): 40.2 nM

CAUCAUGCGCCUAAGGAUAUGUCUCACAAGACAUGAGGAUCACCCAUGUAGAAUAAAUAAAUGAUGCAGAAGGUGGAGCGCAUAC [Beusesce]
apparent KD of MS2 coat protein (MS2 coat protein [1]): 507 nM
apparent KD of MS2 coat protein (MS2 coat protein [2]): 61.9 nM

CGAAGACAUGAGGAUCACCCAUGUCGUCGUAACAGAGGAUAUGGGAACGCCAAGGGCGCAUCAGAAGGCUGAAAAC [Gediaton]
apparent KD of MS2 coat protein (MS2 coat protein [1]): 31 nM
apparent KD of MS2 coat protein (MS2 coat protein [2]): 16.2 nM

CGAGUACAUGAGGAUCACCCAUGUUAUGAAUUGUCAGGAUAUGGGUAGAGGUGACAUGCGCCAGAAGGGACGUCUG [JR_SS001_Sub1005]
apparent KD of MS2 coat protein (MS2 coat protein [1]): 52.8 nM
apparent KD of MS2 coat protein (MS2 coat protein [2]): 194 nM

CGGAGACAUGAGGAUCACCCAUGUGAGAAGAGGCGAGGAUAUCGAAAGAAAGAAGAGAAACGAGAAGGCGCGAGAU [salish99-SS1-069]
apparent KD of MS2 coat protein (MS2 coat protein [1]): 29.8 nM
apparent KD of MS2 coat protein (MS2 coat protein [2]): 20.4 nM

GAAAAACAUGAGGAUCACCCAUGUGAAAACUUGGGAGGAUAUACUAAGACGAAAGUCGAGGUAGAAGGCCUAAAAG [Same State 1.4i (Mat - Mod of Eli - )]
apparent KD of MS2 coat protein (MS2 coat protein [1]): 74.1 nM
apparent KD of MS2 coat protein (MS2 coat protein [2]): 22.4 nM

GAAAAACAUGAGGAUCACCCAUGUGAGAAUAUGGGAGGAUAUACAAGGACGAAAGUCAAGGUAGAAGGCCUAAAAG [Mat - Same State 1 - Eli mod - 28]
apparent KD of MS2 coat protein (MS2 coat protein [1]): 155 nM
apparent KD of MS2 coat protein (MS2 coat protein [2]): 34.3 nM

GAAAAACAUGAGGAUCACCCAUGUGAGAAUAUGGGAGGAUAUUCAAAGACGAAAGUCAAAGAAGAAGGCCUAAAAG [Mat - Same State 1 - Eli mod - 37]
apparent KD of MS2 coat protein (MS2 coat protein [1]): 276 nM
apparent KD of MS2 coat protein (MS2 coat protein [2]): 31.2 nM

GAAAAACAUGAGGAUCACCCAUGUGUAAAUAUGGGAGGAUAUACAAAGACGUAAGUCAGAGUAGAAGGCCUAAAAG [Garnet 93]
apparent KD of MS2 coat protein (MS2 coat protein [1]): 176 nM
apparent KD of MS2 coat protein (MS2 coat protein [2]): 29 nM

GAAAUACAUGAGGAUCACCCAUGUUAGGUAAAACAAGGAUAUCUAGAUAAAUAAAAAUAUAGAGAAGGUGUAUAAA [JR_SS001_Sub206]
apparent KD of MS2 coat protein (MS2 coat protein [1]): 25.1 nM
apparent KD of MS2 coat protein (MS2 coat protein [2]): 20.6 nM

GAAGACAUAGUACAGGAUAUAUGAAUAGUCACAUGAGGAUCACCCAUGUCCAUUUAUAUGGGCACAUAGAAGGGUGGUAGUUGUC [Mat - Same state - Malcolm Mod - D125]
apparent KD of MS2 coat protein (MS2 coat protein [1]): 35.3 nM
apparent KD of MS2 coat protein (MS2 coat protein [2]): 8.69 nM

GACAAACAUGAGGAUCACCCAUGUAGAAAUAUGGGAGGAUAUACAAAGACGAAAGUCAAAGUAGAAGGCCUAAAAG [77%, Mat - Mod of Eli - With 1 more C's]
apparent KD of MS2 coat protein (MS2 coat protein [1]): 79 nM
apparent KD of MS2 coat protein (MS2 coat protein [2]): 21.7 nM

GAGAAACAUGAGGAUCACCCAUGUAGAAAUAUGGGAGGAUAUACAAAGACGAAAGUCAAAGUAGAAGGCCUAGAAG [77%, Mat - Mod of Eli - With 2 more G's]
apparent KD of MS2 coat protein (MS2 coat protein [1]): 51.6 nM
apparent KD of MS2 coat protein (MS2 coat protein [2]): 21.9 nM

GAGAAACAUGAGGAUCACCCAUGUAGAGAUAUGGGAGGAUAUACAGAGACGAGAGUCAAAGUAGAAGGCCUAGAAG [77%, Mat - Mod of Eli - With 5 more G's]
apparent KD of MS2 coat protein (MS2 coat protein [1]): 46.4 nM
apparent KD of MS2 coat protein (MS2 coat protein [2]): 25.5 nM

GAGAAGAAGAGAGAGGAUAUCCAAAGGAAAACAUGAGGAUCACCCAUGUAAAAGGUAGGAAAUUGGGAGAAGGCUCAAAGGAGGG [salish99-ss2-031]
apparent KD of MS2 coat protein (MS2 coat protein [1]): 29.5 nM
apparent KD of MS2 coat protein (MS2 coat protein [2]): 23.2 nM

GAGGACGUAGGAUAGGAUAUGUGAAUAAUUACAUGAGGAUCACCCAUGUCCAUUUAUAUGGGAACAUAGAAGGGUUUUCGUUAUC [SameState2 Malc#40]
apparent KD of MS2 coat protein (MS2 coat protein [1]): 387 nM
apparent KD of MS2 coat protein (MS2 coat protein [2]): 646 nM

GGGAGACAUGAGGAUCACCCAUGUGAAAACGUGCGAGGAUAUGAAUGGAAACCAUACUGUUCAGAAGGCGUUUGUC [Titus Petronius Secundus]
apparent KD of MS2 coat protein (MS2 coat protein [1]): 69.2 nM
apparent KD of MS2 coat protein (MS2 coat protein [2]): 46.5 nM
